Measurements: US20040248790A1, “Novel secretory proteins and dna thereof” (priority 2001, published 2004)
Where no end group is shown, it is not given here.

Legend:
Format in all cases: cell-based
AQ27 [1] = target: T1, AQ27 (Homo sapiens, UniProt Q96P65); assay: Intracellular calcium ion release (FLIPR) in AQ27-expressing CHO cells; parameters: expressed in transfected cells; host or cells: CHO cells; settings: for activity in promoting intracellular calcium ion release in AQ27-expressing CHO cells: peptide 10 μM and 1 μM compared with absence of the sample, Fluo 3-AM; for peptide concentration at which intracellular calcium ion mobilizing activity was recognized in CHO-AQ27: AQ27-expressing CHO cells
T1 sequence (Q96P65 1-431): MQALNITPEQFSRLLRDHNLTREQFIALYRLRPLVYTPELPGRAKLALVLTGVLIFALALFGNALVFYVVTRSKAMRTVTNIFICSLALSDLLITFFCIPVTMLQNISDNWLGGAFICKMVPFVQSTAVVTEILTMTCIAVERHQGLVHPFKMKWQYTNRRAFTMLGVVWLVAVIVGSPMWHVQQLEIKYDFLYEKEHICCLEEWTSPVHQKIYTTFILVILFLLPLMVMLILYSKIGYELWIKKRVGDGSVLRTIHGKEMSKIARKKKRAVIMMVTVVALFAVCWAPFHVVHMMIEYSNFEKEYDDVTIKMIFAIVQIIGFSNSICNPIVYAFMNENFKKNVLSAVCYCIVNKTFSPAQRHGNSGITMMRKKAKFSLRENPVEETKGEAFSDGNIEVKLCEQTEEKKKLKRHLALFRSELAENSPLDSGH
Procedure: AQ27-expressing CHO cells established by a method known per se were plated on a 96-well black culture plate (Costar) at a density of 4×10^4 cells/well and cultured overnight. The assay buffer used was a buffer prepared by adding 20 mM HEPES, pH 7.4 (Dojin Kagaku) and 2.5 mM probenecid (Sigma) to a Hanks' balanced salt solution (HBSS). The medium for the cells were removed, and a solution prepared by adding 4 μM Fluo 3-AM (Dojindo) and 0.04% pluronic acid (Molecular Probes) to the assay buffer was added thereto and incubated at 37° C. for 1 hour. The cells were washed with the assay buffer to remove an excess of Fluo 3 and set in FLIPR (Molecular Devices). A sample dissolved in the assay buffer was also set in FLIPR, and the sample was added to the cells by a built-in manipulator, and a change in fluorescence depending on the concentration of intracellular calcium ions generated by irradiation with an excitation light was measured. As a result, the reactions shown in FIGS. 26 and 27 were detected respectively in the presence of novel peptide F: Arg-Lys-Lys-Gly-Gly-Phe-Ser-Phe-Arg-Phe-NH2 (positions 124 to 133 (RKKGGFSFRF—NH2) in SEQ ID NO: 23) and novel polypeptide F: Gly-Gly-Phe-Ser-Phe-Arg-Phe-NH2 (positions 127 to 133 (GGFSFRF—NH2) in SEQ ID NO: 23) in an amount of 10 μM (▴) and 1 μM (□), as compared with the absence of the sample (◯), and the activity of each peptide in promoting intracellular calcium ion release in the AQ27-expressing CHO cells was detected.

mock CHO cells [2] = assay: Intracellular calcium ion change (FLIPR) in mock CHO cells (control); settings: mock CHO cells as the control
AQ27 [3] = target: T1, AQ27; assay: cAMP production-suppressing activity in AQ27-expressing CHO cells; parameters: expressed in transfected cells; host or cells: CHO cells; settings: 2 μM forskolin; for cAMP production induced by FSK in AQ27-expressing CHO: 30 minutes at 37° C., 10^−7 to 10^−5 M peptide in Example 12
Procedure: (§1) AQ27-expressing CHO cells (FIG. 24) established by a method known per se and mock CHO cells (FIG. 25) serving as a control were plated on a 96-well plate (Becton Dickinson Company, Ltd.) at a density of 4×10^4 cells/well and cultured overnight. The assay buffer used was a buffer prepared by adding 0.1% bovine serum albumin and 0.2 mM 3-isobutyl-1-methylxanthine to a Hanks' balanced salt solution. The cells were washed twice with the assay buffer and pre-incubated at 37° C. for 30 minutes. The cells were washed again twice with the assay buffer, and a sample prepared in the assay buffer was added thereto, and the cells were incubated at 37° C. for 30 minutes. To evaluate the cAMP production-suppressing activity, a sample composed exclusively of 2 μM forskolin (FSK, Wako Pure Chemical Industries, Ltd.) promoting production of cAMP and a sample containing 2 μM FSK and 10^−7 to 10^−5 M novel polypeptide F: Arg-Lys-Lys-Gly-Gly-Phe-Ser-Phe-Arg-Phe-NH2 (positions 124 to 133 in SEQ ID NO: 23) were compared. A supernatant of the cells was discarded, and the amount of cAMP produced in the cells was measured by cAMP Screen System (Applied Biosystems).

AQ27 [4] = target: T1, AQ27; assay: CRE-luciferase reporter gene assay in HEK 293 cells transiently expressing AQ27 receptor; parameters: expressed in transfected cells; host or cells: HEK 293 cells, transient, vector pAKKO-111H, co-transfected with pCRE-Luc; settings: pCRE-Luc reporter, peptide 10, 1 and 0.1 μM in Example 9, 4 hours
Excerpt: (§2) The specific stimulating activity of novel polypeptides F synthesized in Example 8 on AQ27 receptor (SEQ ID NO: 31) and human OT7T022 receptor (SEQ ID NO: 35) was detected by using, as an indicator, the amount of a reporter gene product (luciferase) produced by induction of expression of a cAMP response element (CRE) promoter.
The HEK 293 cells were suspended in a growth medium (DMEM [Dulbecco's Modified Eagle Medium] (Gibco BRL) containing 10% fetal bovine serum (Gibco BRL)), and plated at a density of 1×10^5 cells/well on a black 96-well plate (Becton Dickinson Company, Ltd.) coated with collagen. After the cells were cultured overnight at 37° C. in 5% CO2, the cells were transfected in the following manner with a reporter gene-containing plasmid pCRE-Luc (Clontech) and simultaneously with an expression vector plasmid prepared by inserting AQ27 gene (SEQ ID NO: 32) and human OT7T022 gene (SEQ ID NO: 36) by a known method into an animal cell expression vector pAKKO-111H (the same plasmid vector as pAKKO-1.11H described in Biochem. Biophys. Acta, Hinuma, S. et al., 1219, 251-259, 1994) or with the intact pAKKO-111H not containing AQ27 gene.
OPTI-MEM-I (Gibco BRL) and Lipofectamine™ 2000 Reagent (Gibco BRL) were mixed in a ratio of 24:1 to prepare a Lipofectamine dilution. Separately, OPTI-MEM-I, AQ27 expression vector plasmid or the intact vector plasmid (240 ng/μl) and pCRE-Luc (240 ng/μl) were mixed in a ratio of 24:0.9:0.1 to prepare a DNA dilution. The Lipofectamine dilution and the DNA dilution were mixed in equal amounts and left for 20 minutes at room temperature, to form a DNA/Lipofectamine complex, and 25 μl of the complex was added to the plate where the HEK 293 cells were cultured, and the cells were further cultured overnight at 37° C. in 5% CO2.
(§3) The HEK 293 cells thus transfected were washed with an assay medium (DMEM containing 0.1% bovine serum albumin), and then each of novel polypeptides F synthesized in Example 8, diluted with the assay buffer, was added at concentrations of 10, 1 and 0.1 μM respectively to the cells which were then cultured at 37° C. in 5% CO2 for 4 hours. The culture supernatant was discarded, and 50 μl Pikka Gene LT2.0 (Toyo Ink Mfg. Co., Ltd.), that is, a substrate for measurement of luciferase activity, was added thereto, and the fluorescence of luciferase was measured with a plate reader (ARVO sx multilabel counter, Wallac).
First, full-length human novel secretory protein F gene (SEQ ID NO: 24) was introduced in a usual manner into an expression vector […]. […] The AQ27-specific activity was detected by using an indicator the amount of the reporter gene product (luciferase) produced by induction with expression of cAMP response element (CRE) promoter.

mock CHO cells [5] = assay: cAMP production-suppressing activity in mock CHO cells (control); settings: mock CHO cells as the control; forskolin
Procedure: as §1

human OT7T022 receptor = target: T2, human OT7T022 receptor (Homo sapiens, UniProt Q9GZQ6); assay: CRE-luciferase reporter gene assay in HEK 293 cells transiently expressing OT7T022 receptor; settings: HEK 293 cells transiently expressing human OT7T022 receptor; pCRE-Luc reporter; peptide 10, 1 and 0.1 μM in Example 9
T2 construct: expressed in transfected cells; host or cells: HEK 293 cells, transient, vector pAKKO-111H, co-transfected with pCRE-Luc
T2 sequence (Q9GZQ6 whole entry): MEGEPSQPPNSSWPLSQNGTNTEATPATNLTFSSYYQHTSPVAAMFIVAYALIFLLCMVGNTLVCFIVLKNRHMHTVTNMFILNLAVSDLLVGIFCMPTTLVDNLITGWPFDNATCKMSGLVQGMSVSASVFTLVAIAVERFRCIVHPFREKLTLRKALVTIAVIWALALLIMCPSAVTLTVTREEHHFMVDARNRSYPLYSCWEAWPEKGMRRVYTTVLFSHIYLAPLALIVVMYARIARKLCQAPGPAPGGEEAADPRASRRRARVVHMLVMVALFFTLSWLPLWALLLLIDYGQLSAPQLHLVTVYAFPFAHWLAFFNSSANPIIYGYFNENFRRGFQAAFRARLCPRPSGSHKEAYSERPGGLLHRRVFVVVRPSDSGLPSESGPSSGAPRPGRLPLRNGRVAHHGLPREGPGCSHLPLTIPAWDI
Excerpt: as §2
The HEK 293 cells were suspended in a growth medium (DMEM [Dulbecco's Modified Eagle Medium] (Gibco BRL) containing 10% fetal bovine serum (Gibco BRL)), and plated at a density of 1×10^5 cells/well on a black 96-well plate (Becton Dickinson Company, Ltd.) coated with collagen. […]
as §3

Substance	activity in promoting intracellular calcium ion release in AQ27-expressing CHO cells (AQ27 [1])	cAMP production induced by FSK in AQ27-expressing CHO (AQ27 [3])	activity of luciferase stimulated by adding forskolin (FSK), AQ27 receptor (AQ27 [4])	peptide concentration at which intracellular calcium ion mobilizing activity was recognized in CHO-AQ27 (AQ27 [1])	peptide concentration at which FSK-induced cAMP production was suppressed in AQ27-expressing CHO (AQ27 [3]; AQ27-expressing CHO cells)	activity of luciferase stimulated by adding FSK, human OT7T022 receptor (human OT7T022 receptor)	intracellular calcium ion mobilizing activity in mock CHO cells (mock CHO cells [2])	cAMP production-suppressing activity in mock CHO cells (mock CHO cells [5])
Ala-Ser-Gln-Pro-Gln-Ala-Leu-Leu-Val-Ile-Ala-Arg-Gly-Leu-Gln-Thr-Ser-Gly-Arg-Glu-His-Ala-Gly-Cys-Arg-Phe-NH2 (ASQPQALLVIARGLQTSGREHAGCRF-NH2) [A1-F28-NH2]			increase in luciferase activity	at least 10^−6 M	at least 10 M		not recognized	not recognized
Arg-Lys-Lys-Gly-Gly-Phe-Ser-Phe-Arg-Phe-NH2 (RKKGGFSFRF-NH2)	detected	suppressed	increasing the luciferase activity			suppressing the luciferase activity		

Further lines, with some results ahead:

activity in promoting intracellular calcium ion release in AQ27-expressing CHO cells (AQ27 [1])	cAMP production induced by FSK in AQ27-expressing CHO (AQ27 [3])	activity of luciferase stimulated by adding forskolin (FSK), AQ27 receptor (AQ27 [4])	peptide concentration at which intracellular calcium ion mobilizing activity was recognized in CHO-AQ27 (AQ27 [1])	peptide concentration at which FSK-induced cAMP production was suppressed in AQ27-expressing CHO (AQ27 [3]; AQ27-expressing CHO cells)	activity of luciferase stimulated by adding FSK, human OT7T022 receptor (human OT7T022 receptor)	Substance	intracellular calcium ion mobilizing activity in mock CHO cells (mock CHO cells [2])	cAMP production-suppressing activity in mock CHO cells (mock CHO cells [5])
detected						Gly-Gly-Phe-Ser-Phe-Arg-Phe-NH2 (GGFSFRF-NH2)		
	suppressed	increase in luciferase activity	at least 10^−8 M			Pyr-Asp-Glu-Gly-Ser-Glu-Ala-Thr-Gly-Phe-Leu-Pro-Ala-Ala-Gly-Glu-Lys-Thr-Ser-Gly-Pro-Leu -Gly-Asn-Leu-Ala-Glu-Glu-Leu-Asn-Gly-Tyr-Ser-Arg-Lys-Lys-Gly-Gly-Phe-Ser-Phe Arg-Phe-NH2 (QDEGSEATGFLPAAGEKTSGPLGNLAEELNGYSRKKGGFSFRF; N-terminal pyroglutamate, C-terminal amide; Human) [Pyr1-F43-NH2]	not recognized	not recognized
		increase in luciferase activity				Thr-Ser-Gly-Pro-Leu-Gly-Asn-Leu-Ala-Glu-Glu-Leu-Asn-Gly-Tyr-Ser-Arg-Lys-Lys-Gly-Gly-Phe-Ser-Phe Arg-Phe-NH2 (TSGPLGNLAEELNGYSRKKGGFSFRF-NH2) [T1-F26-NH2]		
